Source: patent US7842293B2, “Compositions and methods using anti-CS1 antibodies to treat multiple myeloma” (Facet Biotech Corporation, priority 2006, dated 2010)

Key:
[1] = test system: L363 cells; experiment: In vivo mouse multiple myeloma xenograft model, L363 tumors; conditions: L363 tumor-bearing mice, HuLuc63 10 mg/kg twice weekly for three weeks
Procedure: (§1) Six- to eight-week old female IcrTac:ICR-Prkdcscid mice obtained from Taconic Farms (Germantown, N.Y.) were inoculated with 1×10^7 OPM2 or L363 cells (German Collection of Microorganisms and Cell Cultures, Braunschweig, Germany) into the lower right flank. Caliper measurements were performed twice weekly to calculate tumor volume using the following formula: L×W×H/2, where L (length) is the longest side of the tumor in the plane of the animal's back, W (width) is the longest measurement perpendicular to the length and in the same plane and H (height) is taken at the highest point perpendicular to the back of the animal. When tumors reached an average size of about 100 mm^3, animals were randomized into 3 groups of 8-10 mice each and were treated with 1 or 10 mg/kg of HuLuc63 or isotype control antibody administered intraperitoneally twice a week for a maximum of 6 doses.
(§2) Tumor growth was monitored for a period of 1-2 months. Animal work was carried out under NIH guidelines (“Guide for the Care and Use of Laboratory Animals”) using protocols approved by IACUC at PDL BioPharma.
(§3) CS1 protein expression was examined on the L363 multiple myeloma cell line. […] The combination of HuLuc63 with Thal was tested for anti-myeloma activity in vivo. L363 tumor-bearing mice were treated with HuLuc63, or isotype control antibody twice weekly for three weeks at 10 mg/kg. Thal was given 5 days a week at 50 mg/kg for a maximum of 15 doses to mice receiving either isotype control antibody or HuLuc63.
L363 tumor-bearing mice were treated with HuLuc63, or isotype control antibody twice weekly for three weeks at 10 mg/kg. Thal was given 5 days a week at 50 mg/kg for a maximum of 15 doses and Dex was given twice a week at 10 mg/kg for a maximum of 6 doses to mice receiving either isotype control antibody or HuLuc63.
To determine if an anti-angiogenic drug can enhance the antitumor effects of HuLuc63, a combination of HuLuc63 with Bevacizumab was tested for anti-myeloma activity in vivo, as described above. L363 tumor-bearing mice were treated with HuLuc63, or isotype control antibody twice weekly for three weeks at 10 mg/kg. Bevacizumab was given twice a week at 0.5 mg/kg for a maximum of 6 doses to mice receiving either isotype control antibody or HuLuc63.

[2] = test system: CS1; experiment: CS1 protein expression on L363 multiple myeloma cell line (flow cytometry); type: cell-based
Procedure: The effect of HuLuc63 and Thal treatment on the expression of CS1 in MM cell lines and mouse xenograft tumors was examined by flow cytometry and immunohistochemistry respectively, as described above.
as §3

[3] = test system: myeloma tumor; conditions: myeloma mouse tumor model; from U.S. Patent Publication No. 2005/0025763; cited from earlier work
[4] = test system: myeloma cells; conditions: from U.S. Patent Publication No. 2005/0025763; cited from earlier work
[5] = test system: OPM2 cells; experiment: In vivo mouse multiple myeloma xenograft model, OPM2 tumors; conditions: OPM2 tumor-bearing mice; HuLuc63 1 mg/kg (sub-optimal) twice weekly for three weeks; Dex 10 mg/kg twice a week; i.p.; FIG. 1
Procedure: as §1
Dex was administered intraperitoneally at a dose of 10 mg/kg twice a week for a maximum of 6 doses.
as §2
CS1 protein expression was examined on the OPM2 multiple myeloma cell line. […] The combination of HuLuc63 with Dex was tested for anti-myeloma activity in vivo. […]

[6] = test system: CS1; experiment: CS1 protein expression on OPM2 multiple myeloma cell line (flow cytometry); type: cell-based
Procedure: The effect of HuLuc63 and Dex treatment on the expression of CS1 in MM cell lines and mouse xenograft tumors was examined by flow cytometry and immunohistochemistry respectively.
CS1 protein expression was examined on the OPM2 multiple myeloma cell line. […] The combination of HuLuc63 with Dex was tested for anti-myeloma activity in vivo. OPM2 tumor-bearing mice were treated with sub-optimal doses of HuLuc63 (1 mg/kg), or isotype control antibody twice weekly for three weeks. Dex was given twice a week at 10 mg/kg to mice receiving either isotype control antibody or HuLuc63.

[7] = Thal 50 mg/kg 5 days a week, max 15 doses, FIG. 2
[8] = Bevacizumab 0.5 mg/kg twice a week, max 6 doses, FIG. 4

Molecule: O=C1CCC(N2C(=O)c3ccccc3C2=O)C(=O)N1 (centres unmarked) [Thal, Thalidomide, reference compound]
- anti-tumor activity [1, 7]: Significant anti-tumor activity
- change in CS1 expression pre- or post-treatment [2]: No significant change in CS1 expression

Molecule: Bevacizumab: monoclonal antibody that targets the endothelial growth factor VEGF [reference compound]
- anti-tumor activity [1, 8]: did not exhibit significant anti-tumor activity

B1: HuLuc63: humanized recombinant monoclonal IgG1 antibody directed to human CS1; heavy chain variable region SEQ ID NO: 5, light chain variable region SEQ ID NO: 6 (antibody, listed as Homo sapiens, V domains shown)
VH: EVQLVESGGGLVQPGGSLRLSCAASGFDFSRYWMSWVRQAPGKGLEWIGEINPDSSTINYAPSLKDKFIISRDNAKNSLYLQMNSLRAEDTAVYYCARPDGNYWYFDVWGQGTLVTVSS
VL: DIQMTQSPSSLSASVGDRVTITCKASQDVGIAVAWYQQKPGKVPKLLIYWASTRHTGVPDRFSGSGSGTDFTLTISSLQPEDVATYYCQQYSSYPYTFGQGTKVEIK
- anti-tumor activity [1, 8]: Significant anti-tumor activity
- anti-tumor activity [1, 7]: Significant anti-tumor activity
- anti-tumor activity ([1]; Thal 50 mg/kg 5 days a week, Dex 10 mg/kg twice a week, FIG. 3): significant anti-tumor activity
- change in CS1 expression pre- or post-treatment [2]: No significant change in CS1 expression
- reduction of tumor mass [3]: more than 50%
- lysis of myeloma cells via ADCC [4]: effectively mediates lysis of myeloma cells
- anti-tumor activity [5]: significant anti-tumor activity
- change in CS1 expression pre- or post-treatment [6]: No significant change in CS1 expression
